Target: 14-3-3 (endogenous, detected with a 14-3-3 antibody; isoform not told) (UniProt Q04917)
Test: anti-FLAG co-immunoprecipitation, western blot densitometry
Settings: HeLa cells, transfected; mean ± SD of three experiments; read off a plot

Chain of UniProt Q04917 (Q04917 whole entry, canonical isoform): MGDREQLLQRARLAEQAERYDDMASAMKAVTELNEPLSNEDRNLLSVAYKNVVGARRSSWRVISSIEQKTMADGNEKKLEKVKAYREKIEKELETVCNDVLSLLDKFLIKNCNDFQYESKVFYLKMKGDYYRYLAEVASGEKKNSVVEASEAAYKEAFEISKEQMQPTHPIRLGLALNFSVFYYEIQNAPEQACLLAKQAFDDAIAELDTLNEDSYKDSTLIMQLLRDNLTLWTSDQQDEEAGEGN

3xFLAG-BPLF1 (amino acid residues 1-235), catalytically active N-terminal deconjugase domain of the Epstein-Barr virus large tegument protein BPLF1 (from UniProt P03186) D86R; D90R
ratio to parent: 0.49
